The target of this assay is Hepatitis B Virus core protein Cp149 dimer (Hepatitis B Virus). Briefly: resistive-pulse sensing.

Values joined by “and” are separate entries in the source; they are usually repeats but may differ in a detail not shown here. Identical values can stand only once.

Take “Hepatitis B Virus core protein Cp149 dimer (domain or fragment)”: the stoichiometry N is 90 dimers and 120 dimers.

What is called stoichiometry N is the number of molecules, sites or subunits per partner or assembly.

The record behind these values is publication PMC5549943.
